Data on nine molecules can be found in US20260232827A1 (Zymeworks, published 2026).

Read-outs that look alike come from different tables or passages of the source.

The target of assay [1] is T1, human FcγR I CD64 (Sino Biological Inc. 10256-H08H) (human, UniProt P12314 16-288).
T1 construct: Bought reagent
In words: SPR (Biacore T200), antibody captured on protein A, FcγR as analyte, multicycle, 1:1 fit.
Description: (§1) Approximately 400-600 RUs of each antibody (2 μg/mL) were captured on the protein A surface on flow cell 2, 3 and 4 by injecting at 10 μL/min for 60 s. Flow cell 1 was used as a reference surface. […] Each in-house FcγR with five concentrations were flowed as analyte using single-cycle kinetics strategy. The flow rate of FcγRs was 50 L/min with contact time of 40 sec and dissociation time of 120 sec. For the high affinity FcγRI CD64, multicycle kinetics were applied. The flow rate of the analyte was 100 L/min with contact time of 100 sec and dissociation time of 650 sec. Blank buffer control was injected using the same flow rate and contact time for each cycle. Surface regeneration was accomplished using 10 mM glycine-HCl, pH 1.5 (Cytiva©, BR100354) for 30 sec with a flow rate of 50 μL/min after each cycle. Binding constants and the maximum observed binding signal (Rmax) were determined using the Biacore™ T200 Evaluation software (version 3.0; GE Healthcare). For single-cycle kinetics, blank-subtracted sensorgrams were analyzed using steady state affinity fitting model. For multicycle kinetics, results were fit to the 1:1 Langmuir binding model.

Assay [2] concerns the target T2, human FcγR IIB Y160 CD32bY (v5777) (human, UniProt P31994 43-217, limits assumed).
T2 construct: In-house reagent
T2 sequence (looked up): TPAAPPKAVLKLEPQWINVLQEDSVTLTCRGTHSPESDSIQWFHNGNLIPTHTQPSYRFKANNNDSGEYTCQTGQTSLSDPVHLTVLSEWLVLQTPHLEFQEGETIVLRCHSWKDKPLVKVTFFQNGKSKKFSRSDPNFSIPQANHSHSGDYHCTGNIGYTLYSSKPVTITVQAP
In words: SPR (Biacore T200), antibody captured on protein A, FcγR as analyte, single-cycle, steady-state fit.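 Note: five FcγR concentrations per single cycle, 40 s association then 120 s dissociation, responses corrected against a reference flow cell and blank buffer injections.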 For orientation: In SPR one partner is held on a chip, and binding of the other changes the refractive index at the surface.
Description: as §1

For assay [3], the target named is T3, human FcγR IIA H131 CD32aH (v5774) (human, UniProt P12318 34-217, limits assumed).
T3 construct: In-house reagent
T3 sequence (looked up): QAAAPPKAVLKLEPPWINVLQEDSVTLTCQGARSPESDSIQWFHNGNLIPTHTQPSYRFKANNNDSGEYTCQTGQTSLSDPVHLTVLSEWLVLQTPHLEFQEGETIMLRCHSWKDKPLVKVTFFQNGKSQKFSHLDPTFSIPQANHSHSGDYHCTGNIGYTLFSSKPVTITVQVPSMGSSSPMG
The description is as above.
Description: as §1

Assay [4] deals with T4, human FcγR IIIA F159 CD16aF (v5772) (human, UniProt P08637 17-208, limits assumed).
T4 construct: In-house reagent
The assay is described as above.
Description: as §1

The next assay deals with T5, Biotinylated human FcRn (human, UniProt P55899 24-297; P61769 21-119, limits assumed, biotinylated (site not stated)).
T5 construct: also called Biotinlated human FcRn; human neonatal fragment crystallizable receptor (FcRn)
The assay can be described thus: SPR (Biacore T200), biotinylated FcRn on neutravidin, antibody as analyte, pH 5.9, steady-state fit.

Assay [5] addresses T6, human sodium-dependent phosphate transporter 2B (NaPi2b) (human, UniProt O95436 1-690).
T6 sequence: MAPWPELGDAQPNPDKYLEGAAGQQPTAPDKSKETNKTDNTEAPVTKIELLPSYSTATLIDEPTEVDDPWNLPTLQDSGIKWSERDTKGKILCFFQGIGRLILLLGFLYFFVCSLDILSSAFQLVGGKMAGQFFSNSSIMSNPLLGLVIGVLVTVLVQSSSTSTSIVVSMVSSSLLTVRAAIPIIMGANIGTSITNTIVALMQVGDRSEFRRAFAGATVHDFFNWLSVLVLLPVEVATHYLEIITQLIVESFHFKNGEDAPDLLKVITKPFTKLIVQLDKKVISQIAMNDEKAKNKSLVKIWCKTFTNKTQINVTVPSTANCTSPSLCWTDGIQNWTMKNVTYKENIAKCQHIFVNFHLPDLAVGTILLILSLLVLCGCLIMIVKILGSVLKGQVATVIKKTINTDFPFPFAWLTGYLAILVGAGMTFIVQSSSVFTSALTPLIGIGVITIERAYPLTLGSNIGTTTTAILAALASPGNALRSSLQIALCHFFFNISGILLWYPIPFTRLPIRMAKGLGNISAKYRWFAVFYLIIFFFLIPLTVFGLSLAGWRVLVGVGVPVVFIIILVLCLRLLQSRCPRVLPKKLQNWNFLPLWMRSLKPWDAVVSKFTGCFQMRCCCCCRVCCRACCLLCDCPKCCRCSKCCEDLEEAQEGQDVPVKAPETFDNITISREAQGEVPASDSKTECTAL
In words: cell-based or functional assay.

Assay [6] addresses T6, human sodium-dependent phosphate …. The assay can be described thus: cell-based or functional assay. The source holds these as a separate data set.
For assay [7] the target is unchanged. The assay can be described thus: cell-based or functional assay. This is another data set of the same source.
The target is the same in assay [8]. In words: cell-based or functional assay. The source holds these as a separate data set.

T5 sequence (P55899 24-297 limits assumed, chain 1 of 2): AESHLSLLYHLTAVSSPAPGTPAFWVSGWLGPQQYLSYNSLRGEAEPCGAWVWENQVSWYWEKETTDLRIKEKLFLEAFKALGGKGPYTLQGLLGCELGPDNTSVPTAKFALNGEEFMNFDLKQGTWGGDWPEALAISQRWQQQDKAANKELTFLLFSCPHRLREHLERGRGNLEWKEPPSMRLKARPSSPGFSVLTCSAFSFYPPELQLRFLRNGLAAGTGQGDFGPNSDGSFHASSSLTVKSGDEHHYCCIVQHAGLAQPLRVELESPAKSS
T5 sequence (P61769 21-119 limits assumed, chain 2 of 2): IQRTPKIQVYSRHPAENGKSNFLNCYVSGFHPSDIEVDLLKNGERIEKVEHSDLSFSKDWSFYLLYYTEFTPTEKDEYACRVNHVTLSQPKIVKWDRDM
T1 sequence (P12314 16-288 limits assumed): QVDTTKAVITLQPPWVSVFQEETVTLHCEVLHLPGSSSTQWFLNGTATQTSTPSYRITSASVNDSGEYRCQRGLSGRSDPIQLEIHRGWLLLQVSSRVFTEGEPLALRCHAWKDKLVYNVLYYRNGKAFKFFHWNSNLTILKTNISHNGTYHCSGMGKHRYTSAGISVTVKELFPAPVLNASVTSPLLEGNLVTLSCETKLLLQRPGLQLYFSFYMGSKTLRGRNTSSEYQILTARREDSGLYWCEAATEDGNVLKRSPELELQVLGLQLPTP
T4 sequence (P08637 17-208 limits assumed): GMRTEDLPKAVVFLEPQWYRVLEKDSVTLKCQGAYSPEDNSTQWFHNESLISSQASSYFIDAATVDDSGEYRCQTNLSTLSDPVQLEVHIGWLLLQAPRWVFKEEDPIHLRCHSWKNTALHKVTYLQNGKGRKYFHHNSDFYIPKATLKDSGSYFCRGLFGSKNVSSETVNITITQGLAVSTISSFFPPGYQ
Description for Biotinylated human FcRn: Neutravidin with concentration of g/mL was injected into flow cell 1 to 4 targeting at 2000 RU with a flow rate of 10 L/min for immobilization. The reaction was inactivated with 1 M Ethanolamine-HCl pH8.5 (Cytiva©, BR100050), following with a buffer wash step using the running buffer, PBS-T (PBS+0.05% (v/v) Tween 20, pH5.9). […] The test articles with different dilutions were flowed as analyte using single-cycle kinetics strategy. The flow rate of analyte was 50 μL/min with contact time of 45 sec and dissociation time of 180 sec. Surface regeneration was accomplished using PBS-T (PBS+0.05% (v/v) Tween 20, pH7.4) for 120 sec with a flow rate of 30 μL/min after each cycle. Binding constants were determined with the Biacore™ T200 Evaluation software (version 3.0; GE Healthcare). Blank-subtracted sensorgrams were analyzed using steady state affinity fitting model. Binding percentage was calculated from observed Rmax and theoretical Rmax (Rmax/Rmax_ₜₕₑₒ), based on human FcRn capture density.

B1: Lifastuzumab (v18993, wild-type Fc) (antibody, human IgG1, kappa)
heavy 1: GEVQLVESGGGLVQPGGSLRLSCAASGFSFSDFAMSWVRQAPGKGLEWVATIGRVAFHTYYPDSMKGRFTISRDNSKNTLYLQMNSLRAEDTAVYYCARHRGFDVGHFDFWGQGTLVTVSSASTKGPSVFPLAPSSKSTSGGTAALGCLVKDYFPEPVTVSWNSGALTSGVHTFPAVLQSSGLYSLSSVVTVPSSSLGTQTYICNVNHKPSNTKVDKKVEPKSCDKTHTCPPCPAPELLGGPSVFLFPPKPKDTLMISRTPEVTCVVVDVSHEDPEVKFNWYVDGVEVHNAKTKPREEQYNSTYRVVSVLTVLHQDWLNGKEYKCKVSNKALPAPIEKTISKAKGQPREPQVYVYPPSRDELTKNQVSLTCLVKGFYPSDIAVEWESNGQPENNYKTTPPVLDSDGSFALVSKLTVDKSRWQQGNVFSCSVMHEALHNHYTQKSLSLSPG
heavy 2: not shown
light: GDIQMTQSPSSLSASVGDRVTITCRSSETLVHSSGNTYLEWYQQKPGKAPKLLIYRVSNRFSGVPSRFSGSGSGTDFTLTISSLQPEDFATYYCFQGSFNPLTFGQGTKVEIKRTVAAPSVFIFPPSDEQLKSGTASVVCLLNNFYPREAKVQWKVDNALQSGNSQESVTEQDSKDSTYSLSSTLTLSKADYEKHKVYACEVTHQGLSSPVTKSFNRGEC
notes: Two different heavy chains (heterodimeric Fc)
As to B1, the Binding percentage in [1] turned out to be 76.9%; in assay [2], 88.6%; in assay [3], 69.6%; in assay [4] it was 71.5%; with Biotinylated human FcRn it was 25.1%. For the same molecule, the equilibrium dissociation constant (Kd) (as a rule, the equilibrium constant for the complex coming apart) in assay [1] was 0.0966 nM; in [2] it was 3740 nM; in assay [3], 746 nM; in assay [4], 2020 nM; with Biotinylated human FcRn, 68.2 nM.

B2: Upifitamab (v40885, wild-type Fc) (antibody, human IgG1, kappa)
heavy 1: GQVQLVQSGAEVVKPGASVKMSCKASGYTFTGYNIHWVKQAPGQGLEWIGAIYPGNGDTSYKQKFRGRATLTADTSTSTVYMELSSLRSEDSAVYYCARGETARATFAYWGQGTLVTVSSASTKGPSVFPLAPSSKSTSGGTAALGCLVKDYFPEPVTVSWNSGALTSGVHTFPAVLQSSGLYSLSSVVTVPSSSLGTQTYICNVNHKPSNTKVDKKVEPKSCDKTHTCPPCPAPELLGGPSVFLFPPKPKDTLMISRTPEVTCVVVDVSHEDPEVKFNWYVDGVEVHNAKTKPREEQYNSTYRVVSVLTVLHQDWLNGKEYKCKVSNKALPAPIEKTISKAKGQPREPQVYVYPPSRDELTKNQVSLTCLVKGFYPSDIAVEWESNGQPENNYKTTPPVLDSDGSFALVSKLTVDKSRWQQGNVFSCSVMHEALHNHYTQKSLSLSPG
heavy 2: not shown
light: GDIQMTQSPSSLSASVGDRVTITCSASQDIGNFLNWYQQKPGKTVKVLIYYTSSLYSGVPSRFSGSGSGTDYTLTISSLQPEDFATYYCQQYSKLPLTFGQGTKLELKRTVAAPSVFIFPPSDEQLKSGTASVVCLLNNFYPREAKVQWKVDNALQSGNSQESVTEQDSKDSTYSLSSTLTLSKADYEKHKVYACEVTHQGLSSPVTKSFNRGEC
Consider B2, for which the Binding percentage in assay [1] turned out to be 97.7%; in assay [2] it was 121%; in [3], 92.1%; in assay [4], 98.7%; with Biotinylated human FcRn, 20.3%. Further, the Kd in assay [2] was 5780 nM; in assay [3], 1010 nM; in assay [4], 2380 nM; with Biotinylated human FcRn, 61.8 nM.

B3: v29456-MT-GGFG-AM-Compound 139 DAR 8 (antibody, human IgG1, kappa)
heavy: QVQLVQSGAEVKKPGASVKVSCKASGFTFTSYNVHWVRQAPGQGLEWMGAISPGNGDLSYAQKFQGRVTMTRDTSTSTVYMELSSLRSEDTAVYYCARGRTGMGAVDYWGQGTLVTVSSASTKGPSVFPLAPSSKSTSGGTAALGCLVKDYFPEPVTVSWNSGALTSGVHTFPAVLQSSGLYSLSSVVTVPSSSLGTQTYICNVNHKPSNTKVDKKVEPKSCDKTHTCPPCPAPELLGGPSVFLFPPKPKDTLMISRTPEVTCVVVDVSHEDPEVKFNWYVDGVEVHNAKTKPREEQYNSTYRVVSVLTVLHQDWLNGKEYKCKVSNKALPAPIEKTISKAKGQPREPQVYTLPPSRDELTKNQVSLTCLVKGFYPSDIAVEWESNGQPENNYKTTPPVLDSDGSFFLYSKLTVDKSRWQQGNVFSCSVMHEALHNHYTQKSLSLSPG
light: DVQMTQSPSSLSASVGDRVTITCRASQDVYSYLNWYQQKPGKAVKLLIYYTSRLQSGVPSRFSGSGSGTDYTLTISSLQPEDFATYYCQQYNIFPWTFGQGTKLEIKRTVAAPSVFIFPPSDEQLKSGTASVVCLLNNFYPREAKVQWKVDNALQSGNSQESVTEQDSKDSTYSLSSTLTLSKADYEKHKVYACEVTHQGLSSPVTKSFNRGEC
modifications: drug-linker MT-GGFG-AM-Compound 139 on cysteine thiols after TCEP reduction, positions not given; DAR 8 for the whole antibody
Turning to B3, in assay [5], the “EC50, in vitro cytotoxicity, 2D monolayer, HCC-78” value (“EC50 … 2D monolayer, HCC-78” for short) turned out to be 0.65 nM and the “EC50, in vitro cytotoxicity, 2D monolayer, IGROV-1” value (“EC50 … 2D monolayer, IGROV-1” for short) turned out to be 1.71 nM. In assay [6], the “EC50, in vitro cytotoxicity, HCC-78 spheroids” value (“EC50 … HCC-78 spheroids” below) stood at 0.82 nM and the “EC50, in vitro cytotoxicity, IGROV-1 spheroids” value (“EC50 … IGROV-1 spheroids” below) was found to be 0.37 nM.

B4: v29456-MT-GGFG-AM-Compound 141 DAR 8 (antibody, human IgG1, kappa)
heavy: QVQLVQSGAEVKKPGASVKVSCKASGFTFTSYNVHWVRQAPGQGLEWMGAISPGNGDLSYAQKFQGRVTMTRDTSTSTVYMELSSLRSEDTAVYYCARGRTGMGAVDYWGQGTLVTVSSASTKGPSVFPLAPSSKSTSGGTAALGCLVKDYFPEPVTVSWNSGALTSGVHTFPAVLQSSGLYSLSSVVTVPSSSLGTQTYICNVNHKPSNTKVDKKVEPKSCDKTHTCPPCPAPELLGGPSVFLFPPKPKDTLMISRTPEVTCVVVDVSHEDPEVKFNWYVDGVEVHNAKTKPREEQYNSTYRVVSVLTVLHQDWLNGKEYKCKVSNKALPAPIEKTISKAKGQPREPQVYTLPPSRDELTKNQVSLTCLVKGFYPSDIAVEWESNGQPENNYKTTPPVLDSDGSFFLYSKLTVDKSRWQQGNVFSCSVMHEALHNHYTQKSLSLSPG
light: B3 light
modifications: drug-linker MT-GGFG-AM-Compound 141 on cysteine thiols after TCEP reduction, positions not given; DAR 8 for the whole antibody
For B4, in [5], the “EC50 … 2D monolayer, HCC-78” value came to 0.26 nM and the “EC50 … 2D monolayer, IGROV-1” value turned out to be 1.56 nM. Also, in [6], the “EC50 … HCC-78 spheroids” value was determined as 0.33 nM and the “EC50 … IGROV-1 spheroids” value worked out at 0.21 nM.

B5: v29456-MC-GGFG-Compound 141 DAR 3.4 (antibody, human IgG1, kappa)
heavy: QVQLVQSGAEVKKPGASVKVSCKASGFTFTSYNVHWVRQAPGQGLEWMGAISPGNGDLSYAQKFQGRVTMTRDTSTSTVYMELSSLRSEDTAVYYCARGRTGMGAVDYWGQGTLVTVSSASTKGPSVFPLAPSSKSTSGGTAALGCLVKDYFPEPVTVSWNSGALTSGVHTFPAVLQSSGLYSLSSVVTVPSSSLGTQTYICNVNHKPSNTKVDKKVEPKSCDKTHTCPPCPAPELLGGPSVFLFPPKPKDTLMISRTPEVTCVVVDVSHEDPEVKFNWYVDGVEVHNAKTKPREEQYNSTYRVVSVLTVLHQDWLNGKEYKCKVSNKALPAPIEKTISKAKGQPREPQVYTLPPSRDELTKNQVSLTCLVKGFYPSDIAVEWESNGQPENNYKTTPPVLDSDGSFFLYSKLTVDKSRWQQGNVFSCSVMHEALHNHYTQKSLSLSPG
light: B3 light
modifications: drug-linker MC-GGFG-Compound 141 on cysteine thiols after TCEP reduction, positions not given; DAR 3.4 for the whole antibody
For B5, the “EC50 … 2D monolayer, IGROV-1” value in [7] was determined as 16.4 nM. Further, in [8], the “EC50 … IGROV-1 spheroids” value is 1.31 nM and the “EC50, in vitro cytotoxicity, TOV-21G:HDFa (1:1) spheroids” value (“EC50 … (1:1) spheroids” below) was 0.99 nM.

B6: v29456-MT-GGFG-Compound 140 DAR 8 (antibody, human IgG1, kappa)
heavy: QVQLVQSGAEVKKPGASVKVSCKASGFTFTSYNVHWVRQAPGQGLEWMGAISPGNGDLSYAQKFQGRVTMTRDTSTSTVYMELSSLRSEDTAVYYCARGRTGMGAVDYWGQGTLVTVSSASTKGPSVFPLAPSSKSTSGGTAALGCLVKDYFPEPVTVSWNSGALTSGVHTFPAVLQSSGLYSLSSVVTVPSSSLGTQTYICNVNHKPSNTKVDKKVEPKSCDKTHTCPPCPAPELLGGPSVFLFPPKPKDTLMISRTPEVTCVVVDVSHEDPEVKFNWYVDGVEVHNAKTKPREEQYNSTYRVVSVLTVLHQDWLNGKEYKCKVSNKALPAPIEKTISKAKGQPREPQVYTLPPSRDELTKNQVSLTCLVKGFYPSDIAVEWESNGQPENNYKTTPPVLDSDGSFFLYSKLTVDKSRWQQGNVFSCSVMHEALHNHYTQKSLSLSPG
light: B3 light
modifications: drug-linker MT-GGFG-Compound 140 on cysteine thiols after TCEP reduction, positions not given; DAR 8 for the whole antibody
For the molecule B6, in [5], the “EC50 … 2D monolayer, HCC-78” value worked out at 0.6 nM. In [6], the “EC50 … HCC-78 spheroids” value turned out to be 0.19 nM and the “EC50 … IGROV-1 spheroids” value amounted to 0.25 nM.

B7: v29456-MC-GGFG-Compound 141 DAR 8 (antibody, human IgG1, kappa)
heavy: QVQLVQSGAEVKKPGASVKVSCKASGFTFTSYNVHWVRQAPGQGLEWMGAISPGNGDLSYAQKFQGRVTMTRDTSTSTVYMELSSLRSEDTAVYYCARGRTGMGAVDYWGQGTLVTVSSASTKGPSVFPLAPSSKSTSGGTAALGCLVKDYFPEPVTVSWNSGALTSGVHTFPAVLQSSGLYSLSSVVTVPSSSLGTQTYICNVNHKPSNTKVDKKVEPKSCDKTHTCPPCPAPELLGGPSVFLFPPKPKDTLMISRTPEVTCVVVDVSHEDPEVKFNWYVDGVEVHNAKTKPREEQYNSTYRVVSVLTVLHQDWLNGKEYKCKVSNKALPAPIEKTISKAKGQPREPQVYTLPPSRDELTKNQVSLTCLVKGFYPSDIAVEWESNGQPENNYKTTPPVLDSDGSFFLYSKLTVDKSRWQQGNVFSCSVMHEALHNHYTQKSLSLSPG
light: B3 light
modifications: drug-linker MC-GGFG-Compound 141 on cysteine thiols after TCEP reduction, positions not given; DAR 8.0 for the whole antibody
Regarding B7, in assay [7], the “EC50 … 2D monolayer, IGROV-1” value turned out to be 3.01 nM and the “EC50, in vitro cytotoxicity, 2D monolayer, TOV-21G” value stood at 0.93 nM. In [8], the “EC50 … IGROV-1 spheroids” value worked out at 0.44 nM and the “EC50 … (1:1) spheroids” value turned out to be 0.9 nM.

B8: v29456-MC-GGFG-AM-Compound 139 DAR 3.4 (antibody, human IgG1, kappa)
heavy: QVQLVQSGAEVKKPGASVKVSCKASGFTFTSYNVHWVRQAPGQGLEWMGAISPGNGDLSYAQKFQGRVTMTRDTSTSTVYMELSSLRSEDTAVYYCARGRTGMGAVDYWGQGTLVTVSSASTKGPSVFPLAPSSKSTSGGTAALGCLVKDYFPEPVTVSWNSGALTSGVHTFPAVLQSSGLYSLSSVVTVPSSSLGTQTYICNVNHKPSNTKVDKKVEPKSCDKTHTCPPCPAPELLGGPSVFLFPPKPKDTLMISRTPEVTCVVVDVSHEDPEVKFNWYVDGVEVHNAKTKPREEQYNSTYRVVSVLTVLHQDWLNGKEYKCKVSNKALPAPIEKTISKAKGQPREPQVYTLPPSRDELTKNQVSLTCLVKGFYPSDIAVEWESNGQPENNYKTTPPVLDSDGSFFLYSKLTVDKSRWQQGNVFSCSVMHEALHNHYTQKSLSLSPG
light: B3 light
modifications: drug-linker MC-GGFG-AM-Compound 139 on cysteine thiols after TCEP reduction, positions not given; DAR 3.4 for the whole antibody
As to B8, the “EC50 … 2D monolayer, IGROV-1” value in assay [7] is 5.46 nM. For the same molecule, in [8], the “EC50 … IGROV-1 spheroids” value was 0.88 nM and the “EC50 … (1:1) spheroids” value stood at 0.76 nM.

B9: v29456-MC-GGFG-AM-DXd1 DAR 8 (antibody, human IgG1, kappa)
heavy: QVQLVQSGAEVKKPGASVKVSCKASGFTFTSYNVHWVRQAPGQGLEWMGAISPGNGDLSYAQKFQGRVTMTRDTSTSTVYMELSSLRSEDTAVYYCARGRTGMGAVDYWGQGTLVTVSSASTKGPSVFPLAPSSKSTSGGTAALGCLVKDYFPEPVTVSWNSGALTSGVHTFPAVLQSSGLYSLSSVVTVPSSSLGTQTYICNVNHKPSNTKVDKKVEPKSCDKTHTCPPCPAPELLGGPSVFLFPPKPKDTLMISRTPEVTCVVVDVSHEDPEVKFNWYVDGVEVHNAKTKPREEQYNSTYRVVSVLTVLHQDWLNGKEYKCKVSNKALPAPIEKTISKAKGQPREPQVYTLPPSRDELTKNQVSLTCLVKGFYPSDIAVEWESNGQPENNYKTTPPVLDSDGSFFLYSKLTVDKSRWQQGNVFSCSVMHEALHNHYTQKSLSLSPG
light: B3 light
modifications: drug-linker MC-GGFG-AM-DXd1 on cysteine thiols after TCEP reduction, positions not given; DAR 8 for the whole antibody
With B9, in assay [5], the “EC50 … 2D monolayer, HCC-78” value came out at 0.55 nM and the “EC50 … 2D monolayer, IGROV-1” value came out at 0.45 nM. In assay [6], the “EC50 … HCC-78 spheroids” value was found to be 0.6 nM and the “EC50 … IGROV-1 spheroids” value stood at 0.27 nM.
